Assay results: patent US20230212319A1, “NOVEL ANTIGEN BINDING DOMAINS AND SYNTHETIC ANTIGEN RECEPTORS INCORPORATING THE SAME” (University of Southern California, priority 2020, published 2023)

How the values were obtained:
Format in all cases: cell-based
RAJI cells = test: JNG assay, co-culture with RAJI cells; details: JNG cells expressing construct, co-culture with Raji
Outline: (§1)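 Read-out is NFAT-driven GFP measured by flow cytometry after ~4–18 h co-culture of SAR-expressing JNG cells with target cells (E:T about 1:2). SARs were introduced by lentiviral spinfection and selected with puromycin or blasticidin when possible; scores (+/- to 5+ ≈ 5–50% GFP+) are relative to parental JNG cells.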

RAJI-CD19-KO cells = test: JNG assay, co-culture with RAJI-CD19-KO cells; details: co-culture with Raji-CD19-KO
Outline: as §1

SKOV-3 cells = test: JNG assay, co-culture with SKOV-3 cells; details: co-culture with SKOV-3
Procedure: Cellular supernatant is collected and assayed for the induction of cytokines (e.g., IL2).
JNG (Jurkat cells expressing EGFP under an NFAT promoter) were infected with lentiviral vectors encoding different single chain and multi-chain SARs by spinfection in the presence of 8 µg/ml of Polybrene® (Sigma, Catalog no. H9268). The Jurkat-NFAT-GFP cells are engineered in such a way that the IL-2 promoter, which carries NFAT binding sites, is cloned upstream of the GFP gene. These cells have been used to study signaling via TCR and CAR. The different SARs were stably expressed in Jurkat NFAT-GFP cells by lentiviral mediated gene transfer, followed by selection with puromycin or blasticidin. No drug selection was used in case the construct lacked an antibiotic resistance gene. The SAR-expressing Jurkat-NFAT-GFP cells were cocultured with the target cells at E:T ratio of approximately 1:2 for approximately 4 hours to 18 hours. When the interaction between SIRs and their target antigen results in activation of the NFAT pathway, GFP expression is induced. […] GFP expression was monitored by FACS analysis. The Jurkat-NFAT-GFP (parental) cells were used as control. The structure of different constructs can be determined based on their names. […] The sequence of the other constructs in the table can be similarly determined from their names and by referring to the different Tables of this disclosure that provide the names and SEQ ID NO of the different modules. Alternatively, the composition and modular architecture of the different SAR constructs can be determined from their sequences by bioinformatics tools, including using nucleic acid and amino acids homology searches. A SAR is considered positive in the assay in case the SAR expressing Jurkat-NFAT-GFP cells show greater % GFP positive cells when cultured with the target cell line as compared to parental Jurkat-NFAT-GFP cells. […] In general, the number +/-, +, 2+, 3+, 4+, 5+ refer to approximately 5%, 10%, 20%, 30%, 40% and 50% GFP positive cells. The % of GFP induction in the above assay is dependent not only the relative strength of the SAR but also, among other factors, on the relative level of expression of the SAR in the JNG cells and the relative level of expression of the target antigen in the target cell line. To control for the difference in gene transduction efficiency of the different SAR constructs, the experiment was conducted with JNG cells transduced with SAR constructs co-expressing a drug resistance gene (e.g., puromycin or PAC) followed by drug selection to generate a stable population of SAR-expressing cells. It is to be noted that the drug resistance gene (e.g., PAC) in the SAR constructs is optional and in vivo studies were conducted with SAR constructs lacking the PAC gene.

Nalm6 cells = test: JNG assay, co-culture with Nalm6 cells; details: co-culture with Nalm6
Outline: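 Values are semi-quantitative grades of GFP induction, each step approximating 10% more GFP+ cells (5+ ≈50%) above parental reporter cells, measured by FACS after SAR-transduced JNG cells were cultured with targets at ~1:2 E:T for ~4–18 h.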

B1: 22166 (protein)
chain: MALPVTALLLPLALLLHAARPEVQLQESGGGLVQPGGSLRLSCAASGRTFSSLFMGWFRQAPGKERELVAAISRYSLYTYYADSVKGRFTISADNAKNAVYLQMNSLKPEDTAVYYCASKLEYTSNDYDSWGQGTQVTVSSGTGGGGSGGGGSGGGGSEFDIQMTQSPSSLSASVGDRVTITCKASDHINNWLAWYQQKPGQAPKLLIYGATTLETGVPSRFSGSGSGTDYTLTISSLQPEDFATYYCQQSWNTPWTFGQGTKLEIKRLEIQNPDPAVYQLRDSKSSDKSVCLFTDFDSQTNVSQSKDSDVYITDKCVLDMRSMDFKSNSAVAWSNKSDFACANAFNNSIIPEDTFFPSSDVPCDVKLVEKSFETDTNLNFQNLSVIGFRILLLKVAGFNLLMTLRLWSSRAKRSGSGVKQTLNFDLLKLAGDVESNPGPTSATMDWIWRILFLVGAATGAHSGPQVQLQESGGGLAQAGGSLRLSCAASGRTFSMGWFRQAPGKEREFVAAITYSGGSPYYASSVRGRFTISRDNAKNTVYLQMNSLKPEDTAVYYCAANPTYGSDWNAENWGQGTQVTVSSGSGGGGSGGGGSGGGGSFEQVQLQQPGAELVKPGASVKMSCKASGYAFSSYWINWMKQKPGQGLEWIGQIYPGDGDTNYNGKFKGRATLTADTSSSTAYMQLSSLTSEDSAVYFCARSITTVVGCAMDYWGQGTSVTVSSTREDLKNVFPPEVAVFEPSKAEIAHTQKATLVCLATGFYPDHVELSWWVNGKEVHSGVCTDPQPLKEQPALNDSRYCLSSRLRVSATFWQNPRNHFRCQVQFYGLSENDEWTQDRAKPVTQIVSAEAWGRADCGITSASYHQGVLSATILYEILLGKATLYAVLVSALVLMAMVKRKDSRGRAKRSGSGATNFSLLKQAGDVEENPGPSRGHMTEYKPTVRLATRDDVPRAVRTLAAAFADYPATRHTVDPDRHIERVTELQELFLTRVGLDIGKVWVADDGAAVAVWTTPESVEAGAVFAEIGPRMAELSGSRLAAQQQMEGLLAPHRPKEPAWFLATVGVSPDHQGKGLGSAVVLPGVEAAERAGVPAFLETSAPRNLPFYERLGFTVTADVEVPEGPRTWCMTRKPGA
RAJI cells
  NFAT-GFP ASSAY: Raji: 2+ (refer to approximately 5%, 10%, 20%, 30%, 40% and 50% GFP positive cells)
RAJI-CD19-KO cells
  NFAT-GFP ASSAY: Raji-CD19-KO: 2+ (refer to approximately 5%, 10%, 20%, 30%, 40% and 50% GFP positive cells)
SKOV-3 cells
  NFAT-GFP ASSAY: SKOV-3: 2+ (refer to approximately 5%, 10%, 20%, 30%, 40% and 50% GFP positive cells)
Nalm6 cells
  NFAT-GFP ASSAY: Nalm6: 3+ (refer to approximately 5%, 10%, 20%, 30%, 40% and 50% GFP positive cells)
